Results as given in the supplement of paper PMC10567573.

B1: GFOD1 (parent)
chain: SDDFCTFQMVLEGGVCCTVTLNFN
B2: SAT2 (parent)
chain: IIKKVAEVALDKGCSQFRLAVLDW

Variants of: B1
Test: protein stability index of a GFP-peptide fusion (GPS, HEK-293T) (PSI 1-6); higher = more stable
Settings: c terminus: a fixed tail appended
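Note: lentivirally expressed fusions sorted by FACS into six bins by GFP to DsRed ratio, PSI derived from sequencing read proportions per bin multiplied by bin number.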

Protein stability index of substitutions, site by site:
L21: I 3 | E 1.63 | S 1.84 | Q 1.93 | M 2.22 | Y 1.69 | R 1.55 | N 1.35
G14: K 2.74 | R 1.6 | W 2.93 | M 2.54 | Q 1.74 | L 3.96
C16: T 3.75 | G 3.63 | F 1.78 | I 3.88 | W 2.8 | D 2.56 | Y 2.76
D3: I 1.7 | Q 2.69 | P 3.01 | G 3.28
V19: G 2.02 | K 1.22 | D 2.65 | E 2.11 | N 2.07 | Q 1.75 | L 3.49 | I 3.22 | P 2.12
Q8: C 2.98 | Y 1.44 | I 3.21 | W 2.86 | G 1.72 | N 2.13
T20: H 2.03 | W 2.71 | F 3.21 | C 1.75 | L 1.03 | P 1.49 | Y 1.97
E12: H 2.37 | M 3.38 | L 4.46 | W 2.6 | Q 2.74 | I 2.56 | C 2.46 | T 1.99 | S 3.99
N24: C 2.91 | Q 1.99 | A 3.67
N22: W 2.88 | D 2.09 | P 2.9 | Y 2.33 | E 1.62
V10: I 1 | M 1.84 | F 4.27 | C 3.77 | A 2.91 | N 1.83 | Y 1.13 | D 3.42 | Q 1.29
C17: F 3.18 | A 2.49 | P 2.66 | L 3.21 | V 1.89 | D 1.8 | K 2.52
F23: D 2.19 | Q 1.24 | E 3.16 | Y 3.05 | S 2.62 | G 2.44 | P 1.56
C5: D 2.59 | I 3.26 | L 3.9
F7: D 1.59 | Y 2.77 | V 1.98 | N 1.63 | W 2.67 | P 1.46 | H 2.26 | G 2.88 | E 2.03
T6: E 2.56 | W 2.35 | K 2.04 | F 2.48 | I 2.48 | M 3.02 | Y 1.92 | H 2.12 | D 3.22 | G 2.51
V15: D 2.58 | C 2.55 | P 2.97 | Y 4.1 | H 4.25 | R 3.84 | K 2.27 | E 2.33 | Q 2.94 | I 1.72
M9: F 2.5 | D 2.18 | V 2.59 | K 1.8 | Y 2.76 | E 1.42
L11: A 1.26 | H 3.05 | K 2.9
T18: C 2.71 | H 2.14 | D 3.76 | W 1.95 | M 2.07 | F 2.37 | R 1.48
G13: V 2.5 | R 3.71 | E 2.48 | Q 3.22 | D 3.2 | N 2.32 | L 4.34
S1: N 2.42 | K 3.01 | P 2.84 | R 2.98 | T 3.26 | M 2.15 | A 3.07 | Y 3.3 | H 2.21
F4: H 1.87 | L 3.55 | C 3.57 | R 3.19 | M 3.37 | V 2.91 | Y 2.63
D2: L 3.05 | T 3.29 | C 3.12 | Y 3.72 | Q 3.58 | S 3.14 | N 3.57 | M 1.27

Variants of: B2
Test: as above
Settings: c terminus: a fixed tail appended

Protein stability index of substitutions, site by site:
I1: C 2.94
